To fix the notation:
T1: human RANKL protein (Sino Biological, 11682-HNCH) (human, UniProt O14788 136-317, limits assumed)
T1 construct: Bought protein
T1 sequence (looked up): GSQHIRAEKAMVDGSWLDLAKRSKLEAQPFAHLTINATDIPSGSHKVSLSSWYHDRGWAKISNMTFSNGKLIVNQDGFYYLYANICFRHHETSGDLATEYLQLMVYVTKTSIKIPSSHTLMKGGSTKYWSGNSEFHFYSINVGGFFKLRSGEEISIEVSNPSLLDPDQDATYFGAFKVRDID

B1: 5-53H (antibody, V domains shown)
VH: EVQLLESGGGLVQPGGSLRLSCAASGFTFSSYAMSWVRQAPGKGLEWVSGITGSGGSTYYADSVKGRFTISRDNSKNTLYLQMNSLRAEDTAVYYCAQDPCFTYIMSWFDPWGQGTLVTVSS
VL: EIVLTQSPGTLSLSPGERATLSCRASQSVRGRYLAWYQQKPGQAPRLLIYGASSRATGIPDRFSGSGSGTDFTLTISRLEPEDFAVFYCQQYGSSPRTFGQGTKVEIK
notes: Variable regions fused to human constant regions
B2: 5-58H (antibody, V domains shown)
VH: B1 VH with A97V, C101G
VL: B1 VL
notes: as for B1
B3: 2-79L (antibody, V domains shown)
VH: B1 VH with Q98K, C101G, F102T, Y104V
VL: B1 VL with A52S
notes: as for B1
B4: 3-37L (antibody, IgG4, V domains shown)
VH: B1 VH with Q98K, C101G, F102T, Y104V
VL: B1 VL with S28A, V29I, Y33K, G51D, A52T
notes: as for B1
B5: 5-16H (antibody, V domains shown)
VH: B1 VH with Q98K, C101A, F102S, T103I, Y104V
VL: B1 VL
notes: as for B1
B6: 3-85L (antibody, V domains shown)
VH: B1 VH with Q98K, C101G, F102T, Y104V
VL: B1 VL with V29I, R30P, R32P, Y33R
notes: as for B1
B7: 1-22H (antibody, V domains shown)
VH: B1 VH with S30A, S31D, T52S, G53A, G56S, Q98K, C101G, F102T, Y104V
VL: B1 VL
notes: Variable regions were fused to human heavy and light chain constant regions to form complete chains
B8: 4-64L (antibody, V domains shown)
VH: B1 VH with Q98K, C101G, F102T, Y104V
VL: B1 VL with T98I
notes: as for B1
B9: 5-51H (antibody, V domains shown)
VH: B1 VH with Q98K, T103S
VL: B1 VL
notes: as for B1
B10: 3-83L (antibody, V domains shown)
VH: B1 VH with Q98K, C101G, F102T, Y104V
VL: B1 VL with S28A, V29L, R30G, G31V, Y33G
notes: as for B1
B11: 2-76L (antibody, IgG4, V domains shown)
VH: B1 VH with Q98K, C101G, F102T, Y104V
VL: B1 VL with S28A, V29I, R30P, G31Y, R32N, Y33Q, A52V
notes: as for B1
B12: 2-87L (antibody, IgG4, V domains shown)
VH: B1 VH with Q98K, C101G, F102T, Y104V
VL: B1 VL with S28Y, V29L, R30P, G31F, R32H, Y33R, G51D, A52T
notes: as for B1
B13: 3-20L (antibody, IgG4, V domains shown)
VH: B1 VH with Q98K, C101G, F102T, Y104V
VL: B1 VL with S28A, V29I, R32P, Y33N, G51D, A52T
notes: as for B1
B14: 2-72L (antibody, V domains shown)
VH: B1 VH with Q98K, C101G, F102T, Y104V
VL: B1 VL with V29L, R30G, G31A, Y33G, A52T
notes: as for B1
B15: 2-52L (antibody, V domains shown)
VH: B1 VH with Q98K, C101G, F102T, Y104V
VL: B1 VL with G51Q, A52G
notes: as for B1

In general, IC50 refers to the midpoint of a concentration-inhibition curve. By Kd is commonly meant a measure of binding affinity in units of concentration. A lower Kd goes with higher affinity. The term koff denotes a measure of how fast the partners let go of each other. A lower koff goes with slow dissociation. A word on the kon: it is a measure of how fast the partners come together. Read a low kon as slow association.

Numbering of substitutions follows the chain as printed.

The target in one experiment is T1, human RANKL protein (Sino Biological, …). Put plainly: blocking ELISA: antibody titrated with fixed biotin-human RANKL, on coated human RANK. On the procedure: After the incubation was complete, the plate was washed 3 times with PBST. Streptavidin-HRP (Invitrogen, 434323, diluted at 1:4000) was added at 100 μL/well, and the plate was incubated at 37° C. for 1 h. The supernatant was removed. After the plate was washed 3 times with PBST, TMB chromogenic substrate (KPL, 5120-0077) was added at 100 μL/well, and the plate was incubated at room temperature for 10 to 15 min. […] The absorbance values at 450 nm were taken using a microplate reader.
(In general: ELISA stands for enzyme-linked immunosorbent assay.)
Molecule B1 yielded an IC50 of 1.37 nM.
As to B2, the IC50 was determined as 0.999 nM.

The target is the same in the next experiment. The experiment in a line: SPR (Biacore), antibody captured on Protein A chip, RANKL in flow, 1:1 fit. As for the experimental part: Reaction signals were detected in real time by using Biacore, and binding and dissociation curves were obtained. After dissociation was complete in each cycle, the biochip was washed and regenerated with a glycine-hydrochloric acid regeneration solution (GE, BR-1003-54) having a pH of 1.5. Fitting was performed on the experimental data using BIAevaluation version 4.1 software with a 1:1 model, and affinity values were obtained.
A general note: In SPR one partner is held on a chip, and binding of the other changes the refractive index at the surface.
On to B3, for which binding was characterised by a dissociation constant (Kd) of 16.3 nM, the “Ratio of affinities (fold increase in affinity relative to denosumab)” value came out at 0.57 fold, the dissociation rate constant (koff) was found to be 0.000232 s⁻¹ and the kon came out at 14200 M⁻¹ s⁻¹.
With B4, the Kd worked out at 19.7 nM, the “Ratio of affinities (fold increase in affinity relative to denosumab)” value came out at 0.47 fold, the koff is 0.000305 s⁻¹ and the kon is 15500 M⁻¹ s⁻¹.
For B5, in that order: 8.91 nM, 1.04 fold, 0.00026 s⁻¹ and 29200 M⁻¹ s⁻¹.
On to B6, for which the Kd was 22.3 nM, the “Ratio of affinities (fold increase in affinity relative to denosumab)” value worked out at 0.41 fold, the koff was 0.000335 s⁻¹ and the kon came out at 15000 M⁻¹ s⁻¹.
On to B7, for which the Kd is 9.81 nM, the “Ratio of affinities (fold increase in affinity relative to denosumab)” value is 0.94 fold, the koff is 0.000253 s⁻¹ and the kon came to 25800 M⁻¹ s⁻¹.
For B1, in that order: 34 nM, 0.27 fold, 0.000583 s⁻¹ and 17200 M⁻¹ s⁻¹.
For B8, in that order: 17.1 nM, 0.54 fold, 0.000253 s⁻¹ and 14800 M⁻¹ s⁻¹.
As to B9, the Kd turned out to be 23.6 nM, the “Ratio of affinities (fold increase in affinity relative to denosumab)” value was 0.39 fold, the koff worked out at 0.00069 s⁻¹ and the kon amounted to 29200 M⁻¹ s⁻¹.
B10: binding was put at a Kd of 20.7 nM, the “Ratio of affinities (fold increase in affinity relative to denosumab)” value is 0.45 fold, the koff was 0.000322 s⁻¹ and the kon stood at 15600 M⁻¹ s⁻¹.
For the molecule B11, the Kd stood at 20.3 nM, the “Ratio of affinities (fold increase in affinity relative to denosumab)” value was determined as 0.46 fold, the koff was 0.000341 s⁻¹ and the kon was determined as 16800 M⁻¹ s⁻¹.
Turning to B2, the Kd stood at 41 nM, the “Ratio of affinities (fold increase in affinity relative to denosumab)” value was 0.23 fold, the koff was 0.000501 s⁻¹ and the kon amounted to 12200 M⁻¹ s⁻¹.
For B12, in that order: 25.6 nM, 0.36 fold, 0.000273 s⁻¹ and 10700 M⁻¹ s⁻¹.
Regarding B13, the Kd came to 13.5 nM, the “Ratio of affinities (fold increase in affinity relative to denosumab)” value worked out at 0.68 fold, the koff came out at 0.000272 s⁻¹ and the kon came out at 20100 M⁻¹ s⁻¹.
Turning to B14, the Kd was determined as 19 nM, the “Ratio of affinities (fold increase in affinity relative to denosumab)” value came out at 0.49 fold, the koff worked out at 0.000308 s⁻¹ and the kon worked out at 16200 M⁻¹ s⁻¹.
Take B15: binding was characterised by a dissociation constant (Kd) of 14.2 nM, the “Ratio of affinities (fold increase in affinity relative to denosumab)” value worked out at 0.65 fold, the koff worked out at 0.000222 s⁻¹ and the kon was 15700 M⁻¹ s⁻¹.

The values are drawn from patent US20240254245A1 (JIANGSU HENGRUI PHARMACEUTICALS, published 2024).
